Assay results reported in publication doi:10.1101/2024.12.31.630886.

Assays:
[1] = molecular target: IatT, GCN5-related N-acetyltransferase (GNAT) of the iat lasso peptide BGC (Actinosynnema mirum DSM 43827); assay: ITC
[2] = molecular target: IatT, GCN5-related N-acetyltransferase (GNAT) of the iat lasso peptide BGC (Actinosynnema mirum DSM 43827); assay: cryo-EM structure

## mirusin B (compound 2), monoacetylated lasso peptide
[1]
  stoichiometry N (molar equivalent): 1

## mirusin C (compound 3), diacetylated lasso peptide
[1]
  stoichiometry N (molar equivalent): 1

## IatT, GCN5-related N-acetyltransferase (GNAT) of the iat lasso peptide BGC (enzyme)
[2]
  stoichiometry N: 14
